Experimental data as given in PMC9191634 (Proceedings of the National Academy of Sciences of the …, 2022).

Assay type: physicochemical
Settings: n = 3

## AgTx2: scorpion toxin that binds in the external pore region of K+ channels
  partitioning into LUVs: did not partition
